According to patent publication US20020102215A1:

Target: thiolated anti-CD34 antibody conjugated to gas-filled microbubbles encapsulated with DSPS and comprising DSPE-PEG2000-MAL
Assay: flow cytometry of anti-CD34-conjugated microbubbles after incubation with the FITC-labelled secondary antibody and washing

% of microbubble population fluorescent: 98%
Substance: FITC-conjugated goat-anti-mouse antibody
